The Km is the concentration of substrate that gives half-maximal velocity. For orientation: Vmax means the rate approached at saturating substrate. Broadly, the kcat is the number of substrate molecules converted per active site and unit of time at saturation. As a reminder, the kcat/Km is the turnover number divided by the Michaelis constant.

2 proteins from article PMC5114784, “Identification and characterization of two new 5-keto-4-deoxy-D-Glucarate Dehydratases/Decarboxylases” (BMC Biotechnology, 2016) can be followed below.

Substrate in series [1]: O=C(O)C(=O)C[C@H](O)[C@@H](O)C(=O)O
The experiment in a line: purified protein. In kind it is biochemical, Acinetobacter baylyi. The conditions noted are these: 2.5 mM KPi pH 7.0, 2 mM MgCl2, 25 μg/ml BTB, 37 °C.

Substrate in series [2]: O=C(O)C(=O)C[C@H](O)[C@@H](O)C(=O)O
In words: purified protein. In kind it is biochemical, Polaromonas naphthalenivorans. The settings on record: 2.5 mM KPi pH 7.0, 2 mM MgCl2, 25 μg/ml BTB, 37 °C.

B1: KdgDAb (Acinetobacter baylyi ADP1) (protein)
chain: MDALELKNIVSDGLLSFPVTDFDQNGDFNAASYAKRLEWLAPYGASALFAAGGTGEFFSLTGDEYSDVIKTAVDACKGSVPIIAGAGGPTRQAILQAQEAERLGAHGILLMPHYLTEASQEGLVEHVKQVCNAVNFGVIFYNRSVSKLNVDSLQQLVESCPNLIGFKDSSGQIDMMTEVVQTLGDRLSYLGGLPTAEIFAAPYKALGSPVYSSAVFNFIPKTAMEFYNALRNDDFATTQRLIRDFFLPLIKIRNRKSGYAVSMVKAGAKIVGHDAGPVRPPLSDLTPQDYEDLAALIATLGPQ
notes: full-length, N-terminal His-tag (NH), codon-optimized gene, E. coli BL21(DE3), IMAC purified
For B1, in “purified protein [1]”, the Km stood at 1000 ± 100 µM, the Vmax was found to be 8 µmol/min/mg, the kcat was determined as 4.5 ± 0.02 s⁻¹ and the kcat/Km is 4500 M⁻¹ s⁻¹.

B2: KdgDPn (Polaromonas naphthalenivorans CJ2) (protein)
chain: MNPQDLKTIVSSGLLSFPVTDFDEQGDFRPKTYIERLEWLAPYGATALFAAGGTGEFFSLTGDEYPLIIKTAVNTCAGKVPIIAGVGGPTRFAIACAQEAERLGAHGILLLPHYLMEAGQEGLIAHVEAVCKSVKFGVIVYNRNVCKLTPESLAILADRCPNLIGFKDGVGNIETMSSIFMKMGDRFSYLGGLPTAEVYAAAYKALGTPVYSSAVFNFIPKTAMDFYHAVASDDLATQHRLLRDFFMPYLALRNKNPGYAVSIVKAGATIVGHDAGPVRPPLTDLKPAEMEELAVLIKSLGPQ
notes: full-length, C-terminal His-tag (CH), codon-optimized gene, E. coli ArcticExpress(DE3), IMAC purified
Turning to B2, in the series “purified protein [2]”, the Km was determined as 1100 ± 100 µM, the Vmax came to 3 µmol/min/mg, the kcat is 1.7 ± 0.01 s⁻¹ and the kcat/Km was found to be 1500 M⁻¹ s⁻¹.
